Measurements taken from US20100184663A1.
Ends that are not written are not given here.

Assays:
D-IZN17 (HIV-1) [1] = molecular target: D-IZN17 (HIV-1) (UniProt P04578); test: clonal phage binding assay in the presence of 25 µM L-2K-PIE2 competitor
D-IZN17 (HIV-1) [2] = molecular target: D-IZN17 (HIV-1) (UniProt P04578); test: clonal phage binding assay, solution phase, D-IZN17 pulled down on streptavidin beads

B1: PIE7-φ (peptide)
peptide: GACDYPEWQWLCAA
modifications: not fully specified (C-terminus); cysteine pairing not given here; also: displayed on M13 g3 protein
D-IZN17 (HIV-1) [1]
  fold binding relative to PIE2-φ: 10 fold

B2: PIE2-φ (peptide)
peptide: GACDYPEWRWLCAA
modifications: not fully specified (C-terminus); cysteine pairing not given here; also: displayed on M13 g3 protein
D-IZN17 (HIV-1) [1]
  fold binding relative to PIE9-φ: 3 fold
D-IZN17 (HIV-1) [2]
  fold binding relative to PIE1-φ: 5 fold

## GACDYPEWRWLCAAA [PIE2-AAA-φ]
D-IZN17 (HIV-1) [1]
  fold binding relative to wt PIE2-φ: 70 fold

B3: PIE8-φ (peptide)
peptide: GACDYKEWQWLCAA
modifications: not fully specified (C-terminus); cysteine pairing not given here; also: displayed on M13 g3 protein
D-IZN17 (HIV-1) [1]
  fold binding relative to PIE2-φ: 2 fold
